Assay: yeast display, Sf9 membrane polyspecificity reagent, FACS + sequencing; frameworks hold sequencing errors
Outline: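 Genes from sorted yeast were amplified by colony PCR, read by MiSeq 2 × 250 sequencing and filtered on CDR length. These cells carried a synthetic nanobody library in Saccharomyces cerevisiae BJ5465 and were sorted by FACS into low and high (top ~1%) gates on anti-HA and streptavidin fluorescence. Polyreactivity is labelled according to the gate of origin.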

Q: For “QVQLVESGGGLVQAGGSLRLSCAASGSTFTFNAMGWYRQAPGKERELVAAIRWSTGGTYYADSVKGRFTISRDNAKNTVYLQMNSLKPEDTAVYYCAAQFVPYFYFSKYDYWGQGTQVTVSS”, which “polyreactivity (PSR sort gate)” value is on record?
A: The value was “low polyreactivity”.

Q: For “QDQLVESGGGLDQAGGRLRLSCAASGSIFGVYAMGWYRQAPGKERELVASITWSSGSTNYADSVKGRFTISRDNAKNTVYLQMNSLKPEDTAVYYCNRVYARSQRVVTKFHYDYWGQGTQVTVSS”, which “polyreactivity (PSR sort gate)” value is on record?
A: The value was “low polyreactivity”.

Q: With “QVQLVESGGGLVQAGGSLRLSCAASGRIFGSYAMGWYRQAPGKERELVAAINWRGGSTFYADSVKGRFTISRDNAKNTVYLQMNSLKPEDTAVYSCARRGYRQSGDYWGQGTQVTVSS” as the sequence, how does the “polyreactivity (PSR sort gate)” value read?
A: The value was “low polyreactivity”.

Q: With “QVQLVESGGGLVQAGGSLRLSCAASGSTFYSYAMGWYRQAPGKERELVAAIDSGGSTYYADTVKGRFTISRDNAKTTVYLQKNSLKPEDTAVYYCAVRVTSYYRTKDYWGQGTQVTVSS” as the sequence, how does the “polyreactivity (PSR sort gate)” value read?
A: Its value is “low polyreactivity”.

Q: Which “polyreactivity (PSR sort gate)” value does the source give for “QVQLEESGGGLVQAGGSLRLSCAASGSTLNRYPMGWNRHATGKERELVATIRWSGGSTYYADSVKPRFTISRYNEKHTVDLQMNSLKAEDTAVYYCAPDRYYYRGRYYGYTREFDYWGQGTHVTVSS” here?
A: Its value is “high polyreactivity”.

Q: For “QFQLVESGGGLVQAGGSLRLSCAASGSTYSYYAMGWYRQAPGKERELVAAISSRGGSTYYADSVKGRFTISRDNAMNTVYLQMNSLKPEDTAVYYCNADHQFRSSVSGDHDYWGQGTQVTVSS”, which “polyreactivity (PSR sort gate)” value is on record?
A: Its value is “high polyreactivity”.

Q: Which “polyreactivity (PSR sort gate)” value does the source give for “QVQLVESGGGLVQAGGSLRLSCAASGRTFRLNVMGWYRQAPGKERELVATISWSGGTTYYADSVKGRFTISRDNAKNTVYFQMNCLKPEDTAVYYCNRQVTWYPTGGYWGQGTQVTVSS” here?
A: Its value is “low polyreactivity”.

Q: With “QVQLVESGGVLVQAGGSLRLSCAASGLIFPSYALGWYRQAPGKERELVAAITFSGSDTNYADSVKGRFTISRDNAKNTVSLQMKSLKPEDTAVYYCAAAYFDFWGWLHDYWGQGTQVTVSS” as the sequence, how does the “polyreactivity (PSR sort gate)” value read?
A: Its value is “low polyreactivity”.

Q: Which “polyreactivity (PSR sort gate)” value does the source give for “QVQLVESGGGLDQAGGSLRLSCAASGFTLHSYALGWYRQAPGKERELVAAITTGGSTYYADSVKGRFTISRDNAKNTVYLQMNSLKPEDTAVYYCAAEDPGPYGGYVYWGQGTQVTVSS” here?
A: Its value is “low polyreactivity”.

Q: Which “polyreactivity (PSR sort gate)” value does the source give for “QVQLQERGGGLVQAGGRLRLSCMASGSILGDRMSWYRQAPGKEHELVATIYDGGITYYADSMKVRFTISRDNANNTVDLQMKSQRPEDTAVYFCGASFEGYRYHVFCGQGTQVTVSS” here?
A: The value was “low polyreactivity”.

Q: With “PVQLVESGGGLVQAGGSLRLSCAASGITIISYAMVWYRQAPGKERELVAAITKSGGRTYYADSVKGRFTISRDNAKNTVYLQMNSLKPEDTAVYYCAAYHLRDNRIGGGYWGQGTQVTVSS” as the sequence, how does the “polyreactivity (PSR sort gate)” value read?
A: Its value is “high polyreactivity”.

Q: For “QVQLVESGGGLVQAGGSLRLSCAASGSIFVYNAMAWYRPAPGKERELVAAISRGGRTYADSVKGRFTISRDNAKNTVYLQMNSLKPEDTAVYYCAAQGYYRSWYSRQGHYDYWGQGTQVTVSS”, which “polyreactivity (PSR sort gate)” value is on record?
A: The value was “high polyreactivity”.

Q: Which “polyreactivity (PSR sort gate)” value does the source give for “QVQLVESGGGLVQAGGSLRLSCAASGSIFHDYAMGWYRQAAGKERELVAVISTSGGSTYYADSVKGRFTISRDNAKNTVYLQMNSLKPEDTAVYYCAADPFDGYSSSEYDYWGQGTQVTVSS” here?
A: The value was “low polyreactivity”.

Q: For “QVQLVESRGGLVQAGGSLRLSCAASGSTFYFYDMGLYRQAPGKERELVGAISSSGGDTYYADSVKGRFTISRDNAKNTVYLQMNSLKPEDTAVYYCAAGQLYSGYEYWGQGTQVTVSS”, which “polyreactivity (PSR sort gate)” value is on record?
A: The value was “low polyreactivity”.

Q: With “QVQLVESGGGLVQAGGSLRLSCAASGRIFSYNAMGWYRQAPGKERDLVASISGGGSTYADSVKGRFTISRDNAKNTVYLQMNRLKPADTAVYYCNAVHFSYEYDYWGQGTQVTVSS” as the sequence, how does the “polyreactivity (PSR sort gate)” value read?
A: The value was “high polyreactivity”.

Q: For “QVQLVESGGGLVQAGGSLRLSCAASGRIFGRYAMGWYRQAPGKERELVASITYRGGGTYYADSVKGRFTISRDNAKNTVYLQMNSLKAEDTAVYYCAAALSNVRNVRSPYDYWGQGTQVTVSS”, which “polyreactivity (PSR sort gate)” value is on record?
A: The value was “high polyreactivity”.

Q: Which “polyreactivity (PSR sort gate)” value does the source give for “QVQLVESGGGLVQAGGSLRLSCAASGSTFVVNAMGWYRQAPGKERELVAAIRSGSSTNYADSVKGRFTISRDNAKNTVYLQMNSLKPEDTAVYYCAARSKYTHSRQSDYWGQGTQVTVSS” here?
A: Its value is “low polyreactivity”.

Q: With “QVQLVESGGGLVQAGGSLRLSCAASGFTFQGNVMGWYRQAPGKERELVAVITSGGSTYYADSVKGRFTISRDNAKNTVYLQMNSLKPEDTAVYYCAKLYNSYTWKYGYWGQGTQVTVSS” as the sequence, how does the “polyreactivity (PSR sort gate)” value read?
A: The value was “high polyreactivity”.

Q: Which “polyreactivity (PSR sort gate)” value does the source give for “QVQLVESGGGFVQAGGSLRLSCAASGRIFGVYALGWYRPAPGKERELVAAISYSGGSTYYADSVKGRFTISRVNAKNTVYLQMNSLKPEDTAVYYCAAKIFPKGDYWGQGTQVTVSS” here?
A: Its value is “high polyreactivity”.

Q: Which “polyreactivity (PSR sort gate)” value does the source give for “QVQLVESGGGLVQAGGSLRLSCAASGRTFYRYAMGWYRQAPGKERELVAAISSGGSTYYADSVKGRFTISRDNAKNTVYLQMNSLKPEDTAVYYCNADYGRRNHMDYWGQGTQVTVSS” here?
A: The value was “low polyreactivity”.

Q: Which “polyreactivity (PSR sort gate)” value does the source give for “QVQLVESGGGLVQAGGSLRLSCAASGLIFKYYAMGWYREAPGKERELVATITRGGGSTYYADSVKGRFTISRDNAKNTVYLQMNSLKPEDTAVYYCAADYWYVYPRYNPGDYWGQGTQVTVSS” here?
A: Its value is “high polyreactivity”.

Q: With “QVQLVESGGGLVQAGGSLRLSCAASGRIFSHNVMGWYRQAPGKERELVAAISGRDGSTYYADSVKGRFTISRDNAKNTVYLQMNSLKPEDTAVYYCATDTSNVEGDYWGQGTQVTVSS” as the sequence, how does the “polyreactivity (PSR sort gate)” value read?
A: The value was “low polyreactivity”.

Q: Which “polyreactivity (PSR sort gate)” value does the source give for “QVKLVESGGGLVQAGGSLRLSCAASGSTFASYAMGWYRQDPGKQRELVAAITRSGGSSTYADSVKGRFTISRDNAKITVYLQMNSLKPEDTAVYYCAARYLYSYYVSYDYWGQGTQLTVSS” here?
A: Its value is “high polyreactivity”.

Q: With “QGQLVESGGGLVQAGGSLPLSCAASGFTFRWNTMGWSRQGPGKEREFVASISQRGGRTFYADSVKGRFTISRDNAKNTVYIQMNCQKPEDTAVYFCNARGHRAVPGDELGYWGQGTQVTVSS” as the sequence, how does the “polyreactivity (PSR sort gate)” value read?
A: The value was “low polyreactivity”.

Q: For “QVQLVESGGGLVQAGGSLRLSCAASGLILQYYVMGWYRQAPGKERELVAAITRSGGGTYYADSVKGRFTISRDNAKNTVYLQMNSLKPEDTAVYYCADRQPYRFHGSEYDYWGQGTQVNVSS”, which “polyreactivity (PSR sort gate)” value is on record?
A: The value was “high polyreactivity”.

Q: With “QVQLQESGVGLVQAGGSLRLSCAASGYITARDAMVWYRQAPGKEREFVATIASGTTTYYADSVKGSFTISRDNEENTVYLQTNSLKPEDTAVYYCAAPTIQIYPFYYWGQGTQVTVSS” as the sequence, how does the “polyreactivity (PSR sort gate)” value read?
A: Its value is “high polyreactivity”.

Q: Which “polyreactivity (PSR sort gate)” value does the source give for “QVQLVESGGGLVQAGGSLRLICAASGRIFPSYTMGWYRQAPGKERELVAGITKSGSSTYYADSVKGRFTISRDNAKNTVYLQMNSLKPEDTAVYYCAAVYGNPSYRYGYWGQGTQVTVSS” here?
A: The value was “high polyreactivity”.

Q: For “QVQLVESGGGLVQAGGSLRLSCAASGSTFEANAMGWYRQAPGKERELVAVITWTGGSTYYADSVKGRFTISRDNAKNTVYLQMNSLKPEDTAVYYCAADGVVPGRFFWPAHEYDYWGQGTQVTVSS”, which “polyreactivity (PSR sort gate)” value is on record?
A: The value was “low polyreactivity”.

Q: Which “polyreactivity (PSR sort gate)” value does the source give for “QVQLVESGGGLVQAGGSLRLSFAASGRMFTGYAMGWYRQAHGKERELVADITSDGGTYYADSVKGRFTISRDNAKNSVYLQMNSLKPEDTAVYYCAAPRVVFGSSGEDDHWGQGTQVTVSS” here?
A: The value was “low polyreactivity”.

Q: Which “polyreactivity (PSR sort gate)” value does the source give for “QVQRVESWGGLVQAGCRLRLSCAASGIFRRYAMGWYRQAPGKERELVAAISSSGGSTDYADSVKGRFTISRDNAKNTVYLLMNSLKPEDTAVYYCNAYDLHGWWSYAYDYWGQGTQVTVSS” here?
A: Its value is “high polyreactivity”.

Q: For “QVQLVESGGGLGQAGGSLRLSCAASGSLITQNALGWYRLAPGKEWELVADISRGSTYSADSVKGRFTISRDNAKNTVYLQLTSLKPEDTALYYSAADDIAHPSFVSTVDVGMDYWGQGPQVTVSS”, which “polyreactivity (PSR sort gate)” value is on record?
A: Its value is “low polyreactivity”.

Q: Which “polyreactivity (PSR sort gate)” value does the source give for “QVQLVESGGGLVQAGGSLRLSCAASGRTFRLNAMGWYRQAPGKERELVAGIRVRAGTTYYADSVKGRFTISRDNAKNTVYLQRNSLKPEDTAVYYCAAESYSRSRKYDYWGQGTQVTVSS” here?
A: The value was “high polyreactivity”.
